Classification data for 9 molecules are collected here from patent US20050282743A1, “Molecular interactions in cells” (Arbor Vita Corporation, priority 2001, published 2005).

What all share (experiment): G' assay
Experiment [1] has as its target T1, GST-NeDLG PDZ domains 1, 2, Q92796.
T1 chain: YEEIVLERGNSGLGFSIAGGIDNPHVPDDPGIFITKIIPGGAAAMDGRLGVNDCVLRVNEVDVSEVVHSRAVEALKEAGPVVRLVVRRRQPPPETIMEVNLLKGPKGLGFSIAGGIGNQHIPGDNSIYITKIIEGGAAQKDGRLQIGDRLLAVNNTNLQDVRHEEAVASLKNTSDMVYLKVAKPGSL

The target in experiment [2] is GST-BAI-1 Associated Protein PDZ domain 3 (Homo sapiens (Human)), Q96QZ7.
Experiment [3] addresses GST-DLG1 PDZ domains 1, 2 (Homo sapiens), Q12959.
Experiment [4] deals with T2, GST-FLJ 10324 PDZ domain 1 [GST: P08515].
T2 chain: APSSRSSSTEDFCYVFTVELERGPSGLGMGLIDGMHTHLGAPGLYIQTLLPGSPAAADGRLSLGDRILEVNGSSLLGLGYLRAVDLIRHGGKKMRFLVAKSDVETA

Experiment [5] concerns the target GST-PSD95 PDZ domains 1, 2, 3 (Homo sapiens), P78352.
For experiment [6], the target named is T3, GST-PTPL1 PDZ domain 2 (Homo sapiens (Human)), Q12923.
T3 chain: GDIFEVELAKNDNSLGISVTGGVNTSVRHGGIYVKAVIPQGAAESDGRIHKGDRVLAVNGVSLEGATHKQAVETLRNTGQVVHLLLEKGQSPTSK

For experiment [7], the target named is T4, GST-KIAA1634 PDZ domain 2 (Homo sapiens (Human)), Q5TCQ9.
T4 chain: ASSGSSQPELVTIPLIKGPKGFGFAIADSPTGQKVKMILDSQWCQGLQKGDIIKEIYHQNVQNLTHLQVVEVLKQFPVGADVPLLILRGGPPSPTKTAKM

The target of experiment [8] is T5, GST-KIAA0807(S) PDZ domain 1 (Homo sapiens (Human)), Q6P0Q8.
T5 chain: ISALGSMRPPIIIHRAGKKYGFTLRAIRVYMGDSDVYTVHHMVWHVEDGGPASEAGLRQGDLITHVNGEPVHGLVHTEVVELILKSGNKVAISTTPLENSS

In experiment [9] the target is T6, GST-FLJ00011 PDZ domain 1 (Homo sapiens (Human)), Q9H5P4.
T6 chain: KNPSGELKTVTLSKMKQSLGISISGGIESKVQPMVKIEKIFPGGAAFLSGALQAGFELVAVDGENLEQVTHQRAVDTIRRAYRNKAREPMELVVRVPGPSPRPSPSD

The target of experiment [10] is T7, GST-APXL-1 PDZ domain 1 (Homo sapiens (Human)), Q13796.
T7 chain: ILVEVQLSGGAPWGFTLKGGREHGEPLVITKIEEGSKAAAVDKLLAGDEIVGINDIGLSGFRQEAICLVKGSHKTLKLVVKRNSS

Experiment [11] concerns the target GST-KIAA807 [GST: P08515].
For experiment [12], the target named is T8, GST-MINT1 PDZ domains 1, 2, Q02410.
T8 chain: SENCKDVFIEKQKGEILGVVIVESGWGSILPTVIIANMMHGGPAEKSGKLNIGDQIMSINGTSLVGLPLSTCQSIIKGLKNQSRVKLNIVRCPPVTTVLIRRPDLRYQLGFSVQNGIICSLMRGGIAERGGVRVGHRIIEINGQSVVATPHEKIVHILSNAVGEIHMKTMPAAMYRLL

Experiment [13] has as its target GST-KIAA1634 PDZ domain 1 (Homo sapiens (Human)), Q5TCQ9.
Experiment [14] has as its target T9, GST-KIAA0973 PDZ domain 1 (Homo sapiens (Human)), Q9Y2H9.
T9 chain: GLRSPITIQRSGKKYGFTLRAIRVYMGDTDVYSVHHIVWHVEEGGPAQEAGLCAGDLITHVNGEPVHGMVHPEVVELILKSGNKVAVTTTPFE

Experiment [15] concerns the target GST-BAI-1 Associated Protein PDZ domain 5 (Homo sapiens (Human)), Q96QZ7.
The target of experiment [16] is T10, GST-MINT1 PDZ domain 2 (Mus musculus (Mouse)), B2RUJ5.
T10 chain: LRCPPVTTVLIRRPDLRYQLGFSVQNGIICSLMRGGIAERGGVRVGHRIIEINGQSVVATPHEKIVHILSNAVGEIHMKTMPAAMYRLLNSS

The target in experiment [17] is T11, GST-TIP1 PDZ domain 1 (Table 9 insert) (Homo sapiens (Human)), O14907.
T11 chain: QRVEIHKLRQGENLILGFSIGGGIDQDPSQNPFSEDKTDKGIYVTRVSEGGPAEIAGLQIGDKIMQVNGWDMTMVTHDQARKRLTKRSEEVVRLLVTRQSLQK

The target in experiment [18] is T12, GST-INADL PDZ domain 8 (Homo sapiens (Human)), Q8NI35.
T12 chain: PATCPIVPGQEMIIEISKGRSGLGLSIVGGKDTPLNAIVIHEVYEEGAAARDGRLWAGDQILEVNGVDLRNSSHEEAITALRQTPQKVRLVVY

The target in experiment [19] is GST-BAI-1 Associated Protein PDZ domain 6 (Homo sapiens (Human)), Q96QZ7.
Experiment [20] addresses GST-BAI-1 Associated Protein PDZ domain 2 (Mus musculus (Mouse)), Q6RHR9.
The target of experiment [21] is T13, GST-KIAA0380 PDZ domain 1 (Homo sapiens (Human)), O15085.
T13 chain: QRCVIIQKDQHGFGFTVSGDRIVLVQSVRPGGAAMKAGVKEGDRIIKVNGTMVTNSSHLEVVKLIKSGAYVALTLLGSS

The target in experiment [22] is GST-BAI-1 Associated Protein PDZ domain 4 (Homo sapiens (Human)), Q96QZ7.
Experiment [23] concerns the target T14, GST-PDZK1 PDZ domains 2, 3, 4, Q5T2W1.
T14 chain: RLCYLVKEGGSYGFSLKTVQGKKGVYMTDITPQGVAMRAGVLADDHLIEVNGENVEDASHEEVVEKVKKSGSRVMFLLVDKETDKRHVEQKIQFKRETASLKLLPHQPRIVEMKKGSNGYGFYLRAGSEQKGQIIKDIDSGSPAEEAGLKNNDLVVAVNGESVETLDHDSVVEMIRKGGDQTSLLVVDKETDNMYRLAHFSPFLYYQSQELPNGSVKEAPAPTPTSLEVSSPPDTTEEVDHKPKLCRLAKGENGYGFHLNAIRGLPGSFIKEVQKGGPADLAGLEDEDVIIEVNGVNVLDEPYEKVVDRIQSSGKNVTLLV

Experiment [24] concerns the target T15, GST-MUPP1 PDZ domain 10 (Homo sapiens (Human)), O75970.
T15 chain: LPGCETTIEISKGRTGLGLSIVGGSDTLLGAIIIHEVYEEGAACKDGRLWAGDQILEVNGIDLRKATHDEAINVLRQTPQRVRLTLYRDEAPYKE

For experiment [25], the target named is T16, GST-LIM-RIL PDZ domain 1 (Homo sapiens (Human)), P50479.
T16 chain: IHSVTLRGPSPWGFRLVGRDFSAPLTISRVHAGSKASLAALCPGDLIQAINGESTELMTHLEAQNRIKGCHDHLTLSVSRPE

Experiment [26] addresses T17, GST-Outer Membrane PDZ domain 1 (Homo sapiens (Human)), P57105.
T17 chain: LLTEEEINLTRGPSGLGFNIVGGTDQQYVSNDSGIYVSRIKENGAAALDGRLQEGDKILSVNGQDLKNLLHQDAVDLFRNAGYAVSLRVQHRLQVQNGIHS

The target of experiment [27] is GST-KIAA0147 PDZ domain 1 (Homo sapiens (Human)), Q14160.
The target in experiment [28] is T18, GST-KIAA0382 PDZ domain 1 (Canis lupus familiaris (Dog) (Canis familiaris)), A0A8I3.
T18 chain: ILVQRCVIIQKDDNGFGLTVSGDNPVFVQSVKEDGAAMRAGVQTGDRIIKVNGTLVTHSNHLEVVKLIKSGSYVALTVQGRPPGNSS

Experiment [29] addresses T19, GST-AIPC PDZ domain 1 (Homo sapiens (Human)), O15018.
T19 chain: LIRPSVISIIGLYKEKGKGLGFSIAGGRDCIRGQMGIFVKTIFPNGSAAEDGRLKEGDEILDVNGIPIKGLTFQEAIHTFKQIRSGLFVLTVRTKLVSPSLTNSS
Also: key of the grades not given here.

Sequence of GST-PSD95 PDZ domains 1, 2, 3 (Homo sapiens), P78352 (P78352 62-395): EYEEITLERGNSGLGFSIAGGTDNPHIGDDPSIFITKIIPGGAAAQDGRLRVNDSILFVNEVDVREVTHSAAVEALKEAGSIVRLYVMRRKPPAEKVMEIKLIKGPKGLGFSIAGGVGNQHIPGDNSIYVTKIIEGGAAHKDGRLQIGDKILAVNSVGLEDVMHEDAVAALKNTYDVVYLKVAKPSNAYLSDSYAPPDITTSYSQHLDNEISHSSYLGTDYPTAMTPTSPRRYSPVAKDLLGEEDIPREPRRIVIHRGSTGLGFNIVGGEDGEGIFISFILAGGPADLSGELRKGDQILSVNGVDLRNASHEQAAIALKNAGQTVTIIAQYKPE
Sequence of GST-KIAA807 [GST: P08515] (P08515 whole entry, the tested form may be a part): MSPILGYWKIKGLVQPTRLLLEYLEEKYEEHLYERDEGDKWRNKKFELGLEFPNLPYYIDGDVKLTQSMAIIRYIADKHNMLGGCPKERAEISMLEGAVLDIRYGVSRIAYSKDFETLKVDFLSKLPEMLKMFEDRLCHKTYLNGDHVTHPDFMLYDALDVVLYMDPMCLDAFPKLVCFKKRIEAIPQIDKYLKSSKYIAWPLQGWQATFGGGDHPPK
Sequence of GST-BAI-1 Associated Protein PDZ domain 5 (Homo sapiens (Human)), Q96QZ7 (Q96QZ7 988-1099): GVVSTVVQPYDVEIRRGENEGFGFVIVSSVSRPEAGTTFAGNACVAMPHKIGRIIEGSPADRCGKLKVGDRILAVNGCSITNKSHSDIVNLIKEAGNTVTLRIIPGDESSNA
Sequence of GST-KIAA1634 PDZ domain 1 (Homo sapiens (Human)), Q5TCQ9 (Q5TCQ9 401-502): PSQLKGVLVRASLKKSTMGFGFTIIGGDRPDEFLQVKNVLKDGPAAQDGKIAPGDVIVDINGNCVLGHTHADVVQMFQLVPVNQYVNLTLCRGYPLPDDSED
Sequence of GST-BAI-1 Associated Protein PDZ domain 2 (Mus musculus (Mouse)), Q6RHR9 (Q6RHR9 455-558): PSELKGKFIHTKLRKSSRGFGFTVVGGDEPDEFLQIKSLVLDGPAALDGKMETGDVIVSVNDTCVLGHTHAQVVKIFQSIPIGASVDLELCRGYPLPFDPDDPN
Sequence of GST-BAI-1 Associated Protein PDZ domain 3 (Homo sapiens (Human)), Q96QZ7 (Q96QZ7 other isoform, or with tags, fused parts or gaps): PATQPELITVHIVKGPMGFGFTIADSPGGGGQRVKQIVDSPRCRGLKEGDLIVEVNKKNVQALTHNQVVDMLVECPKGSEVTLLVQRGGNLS
Sequence of GST-KIAA0147 PDZ domain 1 (Homo sapiens (Human)), Q14160 (Q14160 other isoform, or with tags, fused parts or gaps): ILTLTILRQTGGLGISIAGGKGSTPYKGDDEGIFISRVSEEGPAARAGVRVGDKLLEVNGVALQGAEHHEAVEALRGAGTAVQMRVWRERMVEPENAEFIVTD
Sequence of GST-BAI-1 Associated Protein PDZ domain 4 (Homo sapiens (Human)), Q96QZ7 (Q96QZ7 other isoform, or with tags, fused parts or gaps): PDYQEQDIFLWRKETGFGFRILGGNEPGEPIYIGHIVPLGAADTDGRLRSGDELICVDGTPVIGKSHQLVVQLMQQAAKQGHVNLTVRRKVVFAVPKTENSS
Sequence of GST-BAI-1 Associated Protein PDZ domain 6 (Homo sapiens (Human)), Q96QZ7 (Q96QZ7 1143-1233): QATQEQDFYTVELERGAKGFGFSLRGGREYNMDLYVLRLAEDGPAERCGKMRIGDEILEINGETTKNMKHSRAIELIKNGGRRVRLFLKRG

As to SLKPGTVLPPPPYRHRNTVV (modifications not checked) [ErbB-4 receptor], the Classification in experiment [1] amounted to 1 A450 class; in experiment [2], 1 A450 class; in [3] it was 1 A450 class; in experiment [4] it was 1 A450 class; in experiment [5], 1 A450 class; in experiment [6], 2 A450 class. Besides, the Classification in experiment [7] turned out to be 1 A450 class.
In the case of GTSDMKDLVGNIEQNEHSVI (modifications not checked) [Mannose Receptor], the Classification in experiment [8], in experiment [9], in experiment [10] and in [11] was 1 A450 class in each case.
On to PGQPPKVKSEFNSYSLTGYV (modifications not checked) [claudin 2], for which the Classification is 2 A450 class in experiment [12], 1 A450 class in [2], 1 A450 class in experiment [11] and 1 A450 class in experiment [13].
Take KKGTYLTDETHREVKFTSL (modifications not checked) [CD46]: the Classification amounted to 5 A450 class in experiment [8]; 1 A450 class in experiment [12]; 2 A450 class in experiment [14]; 1 A450 class in experiment [15]; 1 A450 class in [16]; 4 A450 class in [11].
As for RNIEEVYVGGKQVVPFSSSV (modifications not checked) [Nedasin (s-form)], the Classification in experiment [12] was 1 A450 class; in experiment [1], 2 A450 class; in experiment [17], 5 A450 class; in experiment [3], 3 A450 class; in experiment [5], 3 A450 class; in experiment [18], 1 A450 class. Further, the Classification was 1 A450 class in [19]; 2 A450 class in [11]; 1 A450 class in experiment [13]; 1 A450 class in experiment [20]; 1 A450 class in experiment [21].
Take EALQPEPGRKRIPLTRTTTF (modifications not checked) [somatostatin receptor 4]: the Classification in [12], in experiment [22], in [15], in [3], in experiment [23] and in experiment [11] was 1 A450 class in each case.
On to INSVGSTASSSQPLLVHDDV (modifications not checked) [c-kit receptor], for which the Classification in experiment [18], in experiment [24], in experiment [16] and in experiment [25] was 1 A450 class throughout.
Turning to ESSGTQSPKRHSGSYLVTSV (modifications not checked) [APC-adenomatous polyposis coli protein], the Classification in experiment [8] was 1 A450 class; in experiment [1], 4 A450 class; in [17] it was 3 A450 class; in [26], 2 A450 class; in experiment [15] it was 1 A450 class; in experiment [27] it was 1 A450 class. Also, the Classification in [3] amounted to 5 A450 class; in experiment [5], 5 A450 class; in [18] it was 2 A450 class; in experiment [24], 1 A450 class; in experiment [9], 1 A450 class; in experiment [28] it was 1 A450 class. Further, the Classification in [11], in experiment [13], in [20] and in [7] was 1 A450 class in each case.
Consider SSKSKSSEESQTFFGLYKL (modifications not checked) [Fas Ligand], for which the Classification in experiment [8] turned out to be 5 A450 class; in experiment [12], 4 A450 class; in [14], 2 A450 class; in experiment [29], 2 A450 class; in experiment [10], 2 A450 class; in experiment [11] it was 5 A450 class. In addition, the Classification in experiment [21] came to 3 A450 class.
